The results in this text go back to patent US20230357348A1 (AstraZeneca / MedImmune, published 2023).

Assay [1] has as its target human GLP-1 receptor (hGLP-1R) (human, UniProt P43220 24-463). The assay can be described thus: cell-based or functional assay.
The target of assay [2] is human glucagon receptor (hGCGR) (human, UniProt P47871 26-477). The assay can be described thus: cell-based or functional assay.

Starred links: 1 amine or outer side, 2 acyl side, 3 side chain; linkers in the order of their positions; H or OH if unused. Non-standard residues stand in square brackets, D forms with d. Groups on a side chain read outwards from the residue. Primed or numbered codes have the meaning given here. No end group written: not given here. *: point of attachment. C20 diacid = O=C(O)CCCCCCCCCCCCCCCCCCC(=O)*; C18 diacid = O=C(O)CCCCCCCCCCCCCCCCC(=O)*; γGlu = O=C(O)[C@H](CCC(=O)[*:2])N[*:1]; αMeF = C[C@](N)(Cc1ccccc1)C(=O)O; PEG4′ = polyethylene glycol; AEEA = NCCOCCOCC(=O)O; Aib = CC(C)(N)C(=O)O

Chain of human glucagon receptor (hGCGR) (P47871 26-477): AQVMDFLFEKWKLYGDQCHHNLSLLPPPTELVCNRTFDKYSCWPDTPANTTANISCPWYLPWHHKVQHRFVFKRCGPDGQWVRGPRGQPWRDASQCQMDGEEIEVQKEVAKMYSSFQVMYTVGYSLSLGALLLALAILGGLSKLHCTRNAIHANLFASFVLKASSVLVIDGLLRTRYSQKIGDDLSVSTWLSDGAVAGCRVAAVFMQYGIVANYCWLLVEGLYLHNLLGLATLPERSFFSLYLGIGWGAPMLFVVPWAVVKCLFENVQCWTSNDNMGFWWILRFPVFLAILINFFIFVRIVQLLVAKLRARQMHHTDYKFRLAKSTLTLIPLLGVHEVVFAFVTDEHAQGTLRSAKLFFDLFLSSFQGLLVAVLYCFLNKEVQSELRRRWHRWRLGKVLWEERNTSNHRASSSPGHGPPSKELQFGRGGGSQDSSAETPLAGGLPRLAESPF

B1: Peptide 31 (peptide)
peptide: H[Aib]QGTFTSDVSK[αMeF]LDSK([AEEA-AEEA-γGlu-C18 diacid])RAQDFVRWLLE[Aib]G-OH
modifications: N-terminus assumed
SMILES: CC(C)C[C@H](NC(=O)[C@H](Cc1c[nH]c2ccccc12)NC(=O)[C@H](CCCNC(=N)N)NC(=O)[C@@H](NC(=O)[C@H](Cc1ccccc1)NC(=O)[C@H](CC(=O)O)NC(=O)[C@H](CCC(N)=O)NC(=O)[C@H](C)NC(=O)[C@H](CCCNC(=N)N)NC(=O)[C@H](CCCCNC(=O)COCCOCCNC(=O)COCCOCCNC(=O)CC[C@H](NC(=O)CCCCCCCCCCCCCCCCC(=O)O)C(=O)O)NC(=O)[C@H](CO)NC(=O)[C@H](CC(=O)O)NC(=O)[C@H](CC(C)C)NC(=O)[C@](C)(Cc1ccccc1)NC(=O)[C@H](CCCCN)NC(=O)[C@H](CO)NC(=O)[C@@H](NC(=O)[C@H](CC(=O)O)NC(=O)[C@H](CO)NC(=O)[C@@H](NC(=O)[C@H](Cc1ccccc1)NC(=O)[C@@H](NC(=O)CNC(=O)[C@H](CCC(N)=O)NC(=O)C(C)(C)NC(=O)[C@@H](N)Cc1c[nH]cn1)[C@@H](C)O)[C@@H](C)O)C(C)C)C(C)C)C(=O)N[C@@H](CC(C)C)C(=O)N[C@@H](CCC(=O)O)C(=O)NC(C)(C)C(=O)NCC(=O)O
B1: the “hGLP-1R EC50 (pM)” value in assay [1] was found to be 41.3 pM. Besides, in assay [2], the “hGluc-R EC50 (pM)” value turned out to be 56.8 pM.

B2: Peptide 25 (peptide)
peptide: H[Aib]HGS[αMeF]TSDVSK[αMeF]LDSK([AEEA-AEEA-γGlu-γGlu-C20 diacid])AAQD[αMeF]VQ[Aib]IANT-NH2
For the molecule B2, the “hGLP-1R EC50 (pM)” value in assay [1] came to 726 pM. In addition, the “hGluc-R EC50 (pM)” value in assay [2] was 1310 pM.

B3: Peptide 42 (peptide)
peptide: H[Aib]QGTFTSDVSK[αMeF]LDSK([AEEA-AEEA-γGlu-C18 diacid])RAQDFVQ[Aib]LVAT-OH
modifications: N-terminus assumed
SMILES: CC(C)C[C@H](NC(=O)C(C)(C)NC(=O)[C@H](CCC(N)=O)NC(=O)[C@@H](NC(=O)[C@H](Cc1ccccc1)NC(=O)[C@H](CC(=O)O)NC(=O)[C@H](CCC(N)=O)NC(=O)[C@H](C)NC(=O)[C@H](CCCNC(=N)N)NC(=O)[C@H](CCCCNC(=O)COCCOCCNC(=O)COCCOCCNC(=O)CC[C@H](NC(=O)CCCCCCCCCCCCCCCCC(=O)O)C(=O)O)NC(=O)[C@H](CO)NC(=O)[C@H](CC(=O)O)NC(=O)[C@H](CC(C)C)NC(=O)[C@](C)(Cc1ccccc1)NC(=O)[C@H](CCCCN)NC(=O)[C@H](CO)NC(=O)[C@@H](NC(=O)[C@H](CC(=O)O)NC(=O)[C@H](CO)NC(=O)[C@@H](NC(=O)[C@H](Cc1ccccc1)NC(=O)[C@@H](NC(=O)CNC(=O)[C@H](CCC(N)=O)NC(=O)C(C)(C)NC(=O)[C@@H](N)Cc1c[nH]cn1)[C@@H](C)O)[C@@H](C)O)C(C)C)C(C)C)C(=O)N[C@H](C(=O)N[C@@H](C)C(=O)N[C@H](C(=O)O)[C@@H](C)O)C(C)C
B3: in assay [1], the “hGLP-1R EC50 (pM)” value was 665 pM. In addition, the “hGluc-R EC50 (pM)” value in assay [2] came out at 8190 pM.

B4: Peptide 24 (peptide)
peptide: H[Aib]HGS[αMeF]TSDVSK[αMeF]LDSK([AEEA-AEEA-γGlu-C18 diacid])AAQD[αMeF]VQ[Aib]IANT-NH2
modifications: N-terminus assumed
SMILES: CC[C@H](C)[C@H](NC(=O)C(C)(C)NC(=O)[C@H](CCC(N)=O)NC(=O)[C@@H](NC(=O)[C@](C)(Cc1ccccc1)NC(=O)[C@H](CC(=O)O)NC(=O)[C@H](CCC(N)=O)NC(=O)[C@H](C)NC(=O)[C@H](C)NC(=O)[C@H](CCCCNC(=O)COCCOCCNC(=O)COCCOCCNC(=O)CC[C@H](NC(=O)CCCCCCCCCCCCCCCCC(=O)O)C(=O)O)NC(=O)[C@H](CO)NC(=O)[C@H](CC(=O)O)NC(=O)[C@H](CC(C)C)NC(=O)[C@](C)(Cc1ccccc1)NC(=O)[C@H](CCCCN)NC(=O)[C@H](CO)NC(=O)[C@@H](NC(=O)[C@H](CC(=O)O)NC(=O)[C@H](CO)NC(=O)[C@@H](NC(=O)[C@](C)(Cc1ccccc1)NC(=O)[C@H](CO)NC(=O)CNC(=O)[C@H](Cc1c[nH]cn1)NC(=O)C(C)(C)NC(=O)[C@@H](N)Cc1c[nH]cn1)[C@@H](C)O)C(C)C)C(C)C)C(=O)N[C@@H](C)C(=O)N[C@@H](CC(N)=O)C(=O)N[C@H](C(N)=O)[C@@H](C)O
In the case of B4, the “hGLP-1R EC50 (pM)” value in assay [1] worked out at 82.8 pM. In addition, in assay [2], the “hGluc-R EC50 (pM)” value amounted to 101 pM.

B5: Peptide 22 (peptide)
peptide: H[Aib]HGS[αMeF]TSDVSK[αMeF]LDSK([AEEA-AEEA-γGlu-γGlu-C20 diacid])AAQD[αMeF]VESIANT-NH2
modifications: N-terminus assumed
SMILES: CC[C@H](C)[C@H](NC(=O)[C@H](CO)NC(=O)[C@H](CCC(=O)O)NC(=O)[C@@H](NC(=O)[C@](C)(Cc1ccccc1)NC(=O)[C@H](CC(=O)O)NC(=O)[C@H](CCC(N)=O)NC(=O)[C@H](C)NC(=O)[C@H](C)NC(=O)[C@H](CCCCNC(=O)COCCOCCNC(=O)COCCOCCNC(=O)CC[C@H](NC(=O)CC[C@H](NC(=O)CCCCCCCCCCCCCCCCCCC(=O)O)C(=O)O)C(=O)O)NC(=O)[C@H](CO)NC(=O)[C@H](CC(=O)O)NC(=O)[C@H](CC(C)C)NC(=O)[C@](C)(Cc1ccccc1)NC(=O)[C@H](CCCCN)NC(=O)[C@H](CO)NC(=O)[C@@H](NC(=O)[C@H](CC(=O)O)NC(=O)[C@H](CO)NC(=O)[C@@H](NC(=O)[C@](C)(Cc1ccccc1)NC(=O)[C@H](CO)NC(=O)CNC(=O)[C@H](Cc1c[nH]cn1)NC(=O)C(C)(C)NC(=O)[C@@H](N)Cc1c[nH]cn1)[C@@H](C)O)C(C)C)C(C)C)C(=O)N[C@@H](C)C(=O)N[C@@H](CC(N)=O)C(=O)N[C@H](C(N)=O)[C@@H](C)O
B5: in assay [1], the “hGLP-1R EC50 (pM)” value was 1230 pM. In addition, the “hGluc-R EC50 (pM)” value in assay [2] stood at 2720 pM.

B6: Peptide 29 (peptide)
peptide: H[Aib]QGTFTSDVSK[αMeF]LDSK([AEEA-AEEA-γGlu-C18 diacid])RA[Aib]DFVQWLL[Aib]T-OH
modifications: N-terminus assumed
SMILES: CC(C)C[C@H](NC(=O)[C@H](Cc1c[nH]c2ccccc12)NC(=O)[C@H](CCC(N)=O)NC(=O)[C@@H](NC(=O)[C@H](Cc1ccccc1)NC(=O)[C@H](CC(=O)O)NC(=O)C(C)(C)NC(=O)[C@H](C)NC(=O)[C@H](CCCNC(=N)N)NC(=O)[C@H](CCCCNC(=O)COCCOCCNC(=O)COCCOCCNC(=O)CC[C@H](NC(=O)CCCCCCCCCCCCCCCCC(=O)O)C(=O)O)NC(=O)[C@H](CO)NC(=O)[C@H](CC(=O)O)NC(=O)[C@H](CC(C)C)NC(=O)[C@](C)(Cc1ccccc1)NC(=O)[C@H](CCCCN)NC(=O)[C@H](CO)NC(=O)[C@@H](NC(=O)[C@H](CC(=O)O)NC(=O)[C@H](CO)NC(=O)[C@@H](NC(=O)[C@H](Cc1ccccc1)NC(=O)[C@@H](NC(=O)CNC(=O)[C@H](CCC(N)=O)NC(=O)C(C)(C)NC(=O)[C@@H](N)Cc1c[nH]cn1)[C@@H](C)O)[C@@H](C)O)C(C)C)C(C)C)C(=O)N[C@@H](CC(C)C)C(=O)NC(C)(C)C(=O)N[C@H](C(=O)O)[C@@H](C)O
Regarding B6, the “hGLP-1R EC50 (pM)” value in assay [1] worked out at 107 pM. Further, the “hGluc-R EC50 (pM)” value in assay [2] came out at 629 pM.

B7: Peptide 40 (peptide)
peptide: H[Aib]QGTFTSDVSK[αMeF]LDSK([AEEA-AEEA-γGlu-C18 diacid])RAQDFVQWLL[Aib]T-OH
modifications: N-terminus assumed
SMILES: CC(C)C[C@H](NC(=O)[C@H](Cc1c[nH]c2ccccc12)NC(=O)[C@H](CCC(N)=O)NC(=O)[C@@H](NC(=O)[C@H](Cc1ccccc1)NC(=O)[C@H](CC(=O)O)NC(=O)[C@H](CCC(N)=O)NC(=O)[C@H](C)NC(=O)[C@H](CCCNC(=N)N)NC(=O)[C@H](CCCCNC(=O)COCCOCCNC(=O)COCCOCCNC(=O)CC[C@H](NC(=O)CCCCCCCCCCCCCCCCC(=O)O)C(=O)O)NC(=O)[C@H](CO)NC(=O)[C@H](CC(=O)O)NC(=O)[C@H](CC(C)C)NC(=O)[C@](C)(Cc1ccccc1)NC(=O)[C@H](CCCCN)NC(=O)[C@H](CO)NC(=O)[C@@H](NC(=O)[C@H](CC(=O)O)NC(=O)[C@H](CO)NC(=O)[C@@H](NC(=O)[C@H](Cc1ccccc1)NC(=O)[C@@H](NC(=O)CNC(=O)[C@H](CCC(N)=O)NC(=O)C(C)(C)NC(=O)[C@@H](N)Cc1c[nH]cn1)[C@@H](C)O)[C@@H](C)O)C(C)C)C(C)C)C(=O)N[C@@H](CC(C)C)C(=O)NC(C)(C)C(=O)N[C@H](C(=O)O)[C@@H](C)O
Consider B7, for which, in assay [1], the “hGLP-1R EC50 (pM)” value amounted to 29.9 pM. Moreover, the “hGluc-R EC50 (pM)” value in assay [2] was 123 pM.

B8: Peptide 23 (peptide)
peptide: H[Aib]HGS[αMeF]TSDVSK[αMeF]LDSK([AEEA-AEEA-γGlu-C18 diacid])AAQD[αMeF]VESIANT-NH2
modifications: N-terminus assumed
SMILES: CC[C@H](C)[C@H](NC(=O)[C@H](CO)NC(=O)[C@H](CCC(=O)O)NC(=O)[C@@H](NC(=O)[C@](C)(Cc1ccccc1)NC(=O)[C@H](CC(=O)O)NC(=O)[C@H](CCC(N)=O)NC(=O)[C@H](C)NC(=O)[C@H](C)NC(=O)[C@H](CCCCNC(=O)COCCOCCNC(=O)COCCOCCNC(=O)CC[C@H](NC(=O)CCCCCCCCCCCCCCCCC(=O)O)C(=O)O)NC(=O)[C@H](CO)NC(=O)[C@H](CC(=O)O)NC(=O)[C@H](CC(C)C)NC(=O)[C@](C)(Cc1ccccc1)NC(=O)[C@H](CCCCN)NC(=O)[C@H](CO)NC(=O)[C@@H](NC(=O)[C@H](CC(=O)O)NC(=O)[C@H](CO)NC(=O)[C@@H](NC(=O)[C@](C)(Cc1ccccc1)NC(=O)[C@H](CO)NC(=O)CNC(=O)[C@H](Cc1c[nH]cn1)NC(=O)C(C)(C)NC(=O)[C@@H](N)Cc1c[nH]cn1)[C@@H](C)O)C(C)C)C(C)C)C(=O)N[C@@H](C)C(=O)N[C@@H](CC(N)=O)C(=O)N[C@H](C(N)=O)[C@@H](C)O
Turning to B8, the “hGLP-1R EC50 (pM)” value in assay [1] is 266 pM. In assay [2], the “hGluc-R EC50 (pM)” value stood at 321 pM.

B9: Peptide 41 (peptide)
peptide: H[Aib]QGTFTSDYSK[αMeF]LDSK([AEEA-AEEA-γGlu-C18 diacid])RAQDFVQWLV[PEG4′]-NH2
As to B9, the “hGLP-1R EC50 (pM)” value in assay [1] is 663 pM. The “hGluc-R EC50 (pM)” value in assay [2] stood at 5740 pM.
